Experimental findings from PMC13334617 are described below.

Where “and” joins values, the source holds several entries; their conditions need not be identical. Identical values can stand only once. A value given as a limit tells only on which side of the number the result lay.

Test [1] has as its target ACM2 variant of AC fused to GFP (ACM2-GFP), encoded by plasmid pACM2-Gfp (Bordetella pertussis | not stated) (UniProt P0DKX7). Description: two-hybrid.
Test [2] deals with ACM1 variant of AC fused to GFP (ACM1-GFP), encoded by plasmid pACM1-Gfp (Bordetella pertussis | not stated) (UniProt P0DKX7). Description: two-hybrid.

B1: CaM fused to the V1K nanobody at its N-terminus, with a C-terminal AviTag (CaM-V1K), encoded by plasmid pK1Cam-V1K (VHH)
VHH: QVQLVESGGALVQPGGSLRLSCAASGFPVNRYSMRWYRQAPGKEREWVAGMSSAGDRSSYEDSVKGRFTISRDDARNTVYLQMNSLKPEDTAVYYCNVNVGFEYWGQGTQVTVSS
For B1, in test [1], the ß gal (Rel. Units) came to 74 Rel. Units.

B2: CaM fused to the V9A nanobody at its N-terminus and a tetra-cysteine tag at its C-terminus (CaM-V9A) (VHH)
VHH: DVQLQESGGGSVQAGGSLRLSCAASGDTFSSYSMAWFRQAPGKECELVSNILRDGTTTYAGSVKGRFTISRDDAKNTVYLQMVNLKSEDTARYYCAADSGTQLGYVGAVGLSCLDYVMDYWGKGTQVTVSS
As to B2, in test [2], the cAMP is greater than 50 nmol/mg and the ß gal (Rel. Units) amounted to 26 Rel. Units. Moreover, in test [1], the cAMP was greater than 60 nmol/mg and the ß gal (Rel. Units) came to 78 Rel. Units.

B3: CaM fused to the V9A nanobody at its N-terminus, with a C-terminal AviTag (CaM-V9A), encoded by plas (VHH)
VHH: DVQLQESGGGSVQAGGSLRLSCAASGDTFSSYSMAWFRQAPGKECELVSNILRDGTTTYAGSVKGRFTISRDDAKNTVYLQMVNLKSEDTARYYCAADSGTQLGYVGAVGLSCLDYVMDYWGKGTQVTVSS
On to B3, for which the ß gal (Rel. Units) in test [2] was 4 Rel. Units; in test [1], 57 Rel. Units and 23 Rel. Units.
